# Biological target: T1, CD3 epsilon homodimer protein (UniProt P07766 23-126)
# T1 construct: also called CD3 (CD3 epsilon)
# Test: SPR, CD3 epsilon homodimer on chip, one-arm antibody as analyte;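 also: surface plasmon resonance at 25 °C with CD3 epsilon homodimer amine-coupled to a CM4 sensor chip, antibody injected as analyte, HBS-EP+ as running buffer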
# T1 sequence (P07766 23-126): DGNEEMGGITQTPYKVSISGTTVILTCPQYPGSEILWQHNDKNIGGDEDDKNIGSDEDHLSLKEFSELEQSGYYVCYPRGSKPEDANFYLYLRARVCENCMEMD
row,KD ratio (KD of CE115HA000/KD of altered form),Binder
1,0.95,"CE115HA000 A52aV (antibody, human IgG1, kappa, L234A L235A, N297A, name in Kabat numbering, one-arm antibody) heavy: QVQLVESGGGVVQPGRSLRLSCAASGFTFSNAWMHWVRQAPGKGLEWVAQIKVKSNNYATYYAESVKGRFTISRDDSKNSLYLQMNSLKTEDTAVYYCRYVHYGAYYGVDAWGQGTTVTVSSASTKGPSVFPLAPSSKSTSGGTAALGCLVKDYFPEPVTVSWNSGALTSGVHTFPAVLQSSGLYSLSSVVTVPSSSLGTQTYICNVNHKPSNTKVDKKVEPKSCDKTHTCPPCPAPEAAGGPSVFLFPPKPKDTLMISRTPEVTCVVVDVSHEDPEVKFNWYVDGVEVHNAKTKPREEQYASTYRVVSVLTVLHQDWLNGKEYKCKVSNKALPAPIEKTISKAKGQPREPQVYTLPPSRCELTKNQVSLSCAVKGFYPSDIAVEWESNGQPENNYKTTPPVLDSDGSFFLVSKLTVDKSRWQQGNVFSCSVMHEALHNHYTQKSLSLSPDYKDDDDK EPKSSDKTHTCPPCPAPELLGGPSVFLFPPKPKDTLMISRTPEVTCVVVDVSHEDPEVKFNWYVDGVEVHNAKTKPREEQYNSTYRVVSVLTVLHQDWLNGKEYKCKVSNKALPAPIEKTISKAKGQPREPQVCTLPPSRDELTKNQVSLWCLVKGFYPSDIAVEWESNGQPENNYKTTPPVLDSDGSFFLYSKLTVDKSRWQQGNVFSCSVMHEALHNRYTQKSLSLSP light: DIVMTQSPLSLPVTPGEPASISCRSSQSLVHSNRNTYLHWYQQKPGQAPRLLIYKVSNRFSGVPDRFSGSGSGTDFTLKISRVEAEDVGVYYCGQGTQVPYTFGQGTKLEIKRTVAAPSVFIFPPSDEQLKSGTASVVCLLNNFYPREAKVQWKVDNALQSGNSQESVTEQDSKDSTYSLSSTLTLSKADYEKHKVYACEVTHQGLSSPVTKSFNRGEC"
2,7.71,"CE115HA000 A52aY (antibody, human IgG1, kappa, L234A L235A, N297A, name in Kabat numbering, one-arm antibody) heavy: QVQLVESGGGVVQPGRSLRLSCAASGFTFSNAWMHWVRQAPGKGLEWVAQIKYKSNNYATYYAESVKGRFTISRDDSKNSLYLQMNSLKTEDTAVYYCRYVHYGAYYGVDAWGQGTTVTVSSASTKGPSVFPLAPSSKSTSGGTAALGCLVKDYFPEPVTVSWNSGALTSGVHTFPAVLQSSGLYSLSSVVTVPSSSLGTQTYICNVNHKPSNTKVDKKVEPKSCDKTHTCPPCPAPEAAGGPSVFLFPPKPKDTLMISRTPEVTCVVVDVSHEDPEVKFNWYVDGVEVHNAKTKPREEQYASTYRVVSVLTVLHQDWLNGKEYKCKVSNKALPAPIEKTISKAKGQPREPQVYTLPPSRCELTKNQVSLSCAVKGFYPSDIAVEWESNGQPENNYKTTPPVLDSDGSFFLVSKLTVDKSRWQQGNVFSCSVMHEALHNHYTQKSLSLSPDYKDDDDK EPKSSDKTHTCPPCPAPELLGGPSVFLFPPKPKDTLMISRTPEVTCVVVDVSHEDPEVKFNWYVDGVEVHNAKTKPREEQYNSTYRVVSVLTVLHQDWLNGKEYKCKVSNKALPAPIEKTISKAKGQPREPQVCTLPPSRDELTKNQVSLWCLVKGFYPSDIAVEWESNGQPENNYKTTPPVLDSDGSFFLYSKLTVDKSRWQQGNVFSCSVMHEALHNRYTQKSLSLSP light: DIVMTQSPLSLPVTPGEPASISCRSSQSLVHSNRNTYLHWYQQKPGQAPRLLIYKVSNRFSGVPDRFSGSGSGTDFTLKISRVEAEDVGVYYCGQGTQVPYTFGQGTKLEIKRTVAAPSVFIFPPSDEQLKSGTASVVCLLNNFYPREAKVQWKVDNALQSGNSQESVTEQDSKDSTYSLSSTLTLSKADYEKHKVYACEVTHQGLSSPVTKSFNRGEC"
3,0.71,"CE115HA000 A56D (antibody, human IgG1, kappa, L234A L235A, N297A, name in Kabat numbering, one-arm antibody) heavy: QVQLVESGGGVVQPGRSLRLSCAASGFTFSNAWMHWVRQAPGKGLEWVAQIKAKSNNYDTYYAESVKGRFTISRDDSKNSLYLQMNSLKTEDTAVYYCRYVHYGAYYGVDAWGQGTTVTVSSASTKGPSVFPLAPSSKSTSGGTAALGCLVKDYFPEPVTVSWNSGALTSGVHTFPAVLQSSGLYSLSSVVTVPSSSLGTQTYICNVNHKPSNTKVDKKVEPKSCDKTHTCPPCPAPEAAGGPSVFLFPPKPKDTLMISRTPEVTCVVVDVSHEDPEVKFNWYVDGVEVHNAKTKPREEQYASTYRVVSVLTVLHQDWLNGKEYKCKVSNKALPAPIEKTISKAKGQPREPQVYTLPPSRCELTKNQVSLSCAVKGFYPSDIAVEWESNGQPENNYKTTPPVLDSDGSFFLVSKLTVDKSRWQQGNVFSCSVMHEALHNHYTQKSLSLSPDYKDDDDK EPKSSDKTHTCPPCPAPELLGGPSVFLFPPKPKDTLMISRTPEVTCVVVDVSHEDPEVKFNWYVDGVEVHNAKTKPREEQYNSTYRVVSVLTVLHQDWLNGKEYKCKVSNKALPAPIEKTISKAKGQPREPQVCTLPPSRDELTKNQVSLWCLVKGFYPSDIAVEWESNGQPENNYKTTPPVLDSDGSFFLYSKLTVDKSRWQQGNVFSCSVMHEALHNRYTQKSLSLSP light: DIVMTQSPLSLPVTPGEPASISCRSSQSLVHSNRNTYLHWYQQKPGQAPRLLIYKVSNRFSGVPDRFSGSGSGTDFTLKISRVEAEDVGVYYCGQGTQVPYTFGQGTKLEIKRTVAAPSVFIFPPSDEQLKSGTASVVCLLNNFYPREAKVQWKVDNALQSGNSQESVTEQDSKDSTYSLSSTLTLSKADYEKHKVYACEVTHQGLSSPVTKSFNRGEC"

# Continued, binder first:
row,Binder,KD ratio (KD of CE115HA000/KD of altered form)
1,"CE115HA000 A52aS (antibody, human IgG1, kappa, L234A L235A, N297A, name in Kabat numbering, one-arm antibody) heavy: QVQLVESGGGVVQPGRSLRLSCAASGFTFSNAWMHWVRQAPGKGLEWVAQIKSKSNNYATYYAESVKGRFTISRDDSKNSLYLQMNSLKTEDTAVYYCRYVHYGAYYGVDAWGQGTTVTVSSASTKGPSVFPLAPSSKSTSGGTAALGCLVKDYFPEPVTVSWNSGALTSGVHTFPAVLQSSGLYSLSSVVTVPSSSLGTQTYICNVNHKPSNTKVDKKVEPKSCDKTHTCPPCPAPEAAGGPSVFLFPPKPKDTLMISRTPEVTCVVVDVSHEDPEVKFNWYVDGVEVHNAKTKPREEQYASTYRVVSVLTVLHQDWLNGKEYKCKVSNKALPAPIEKTISKAKGQPREPQVYTLPPSRCELTKNQVSLSCAVKGFYPSDIAVEWESNGQPENNYKTTPPVLDSDGSFFLVSKLTVDKSRWQQGNVFSCSVMHEALHNHYTQKSLSLSPDYKDDDDK EPKSSDKTHTCPPCPAPELLGGPSVFLFPPKPKDTLMISRTPEVTCVVVDVSHEDPEVKFNWYVDGVEVHNAKTKPREEQYNSTYRVVSVLTVLHQDWLNGKEYKCKVSNKALPAPIEKTISKAKGQPREPQVCTLPPSRDELTKNQVSLWCLVKGFYPSDIAVEWESNGQPENNYKTTPPVLDSDGSFFLYSKLTVDKSRWQQGNVFSCSVMHEALHNRYTQKSLSLSP light: DIVMTQSPLSLPVTPGEPASISCRSSQSLVHSNRNTYLHWYQQKPGQAPRLLIYKVSNRFSGVPDRFSGSGSGTDFTLKISRVEAEDVGVYYCGQGTQVPYTFGQGTKLEIKRTVAAPSVFIFPPSDEQLKSGTASVVCLLNNFYPREAKVQWKVDNALQSGNSQESVTEQDSKDSTYSLSSTLTLSKADYEKHKVYACEVTHQGLSSPVTKSFNRGEC",0.82
2,"CE115HA000 A56G (antibody, human IgG1, kappa, L234A L235A, N297A, name in Kabat numbering, one-arm antibody) heavy: QVQLVESGGGVVQPGRSLRLSCAASGFTFSNAWMHWVRQAPGKGLEWVAQIKAKSNNYGTYYAESVKGRFTISRDDSKNSLYLQMNSLKTEDTAVYYCRYVHYGAYYGVDAWGQGTTVTVSSASTKGPSVFPLAPSSKSTSGGTAALGCLVKDYFPEPVTVSWNSGALTSGVHTFPAVLQSSGLYSLSSVVTVPSSSLGTQTYICNVNHKPSNTKVDKKVEPKSCDKTHTCPPCPAPEAAGGPSVFLFPPKPKDTLMISRTPEVTCVVVDVSHEDPEVKFNWYVDGVEVHNAKTKPREEQYASTYRVVSVLTVLHQDWLNGKEYKCKVSNKALPAPIEKTISKAKGQPREPQVYTLPPSRCELTKNQVSLSCAVKGFYPSDIAVEWESNGQPENNYKTTPPVLDSDGSFFLVSKLTVDKSRWQQGNVFSCSVMHEALHNHYTQKSLSLSPDYKDDDDK EPKSSDKTHTCPPCPAPELLGGPSVFLFPPKPKDTLMISRTPEVTCVVVDVSHEDPEVKFNWYVDGVEVHNAKTKPREEQYNSTYRVVSVLTVLHQDWLNGKEYKCKVSNKALPAPIEKTISKAKGQPREPQVCTLPPSRDELTKNQVSLWCLVKGFYPSDIAVEWESNGQPENNYKTTPPVLDSDGSFFLYSKLTVDKSRWQQGNVFSCSVMHEALHNRYTQKSLSLSP light: DIVMTQSPLSLPVTPGEPASISCRSSQSLVHSNRNTYLHWYQQKPGQAPRLLIYKVSNRFSGVPDRFSGSGSGTDFTLKISRVEAEDVGVYYCGQGTQVPYTFGQGTKLEIKRTVAAPSVFIFPPSDEQLKSGTASVVCLLNNFYPREAKVQWKVDNALQSGNSQESVTEQDSKDSTYSLSSTLTLSKADYEKHKVYACEVTHQGLSSPVTKSFNRGEC",0.59
3,"CE115HA000 A56K (antibody, human IgG1, kappa, L234A L235A, N297A, name in Kabat numbering, one-arm antibody) heavy: QVQLVESGGGVVQPGRSLRLSCAASGFTFSNAWMHWVRQAPGKGLEWVAQIKAKSNNYKTYYAESVKGRFTISRDDSKNSLYLQMNSLKTEDTAVYYCRYVHYGAYYGVDAWGQGTTVTVSSASTKGPSVFPLAPSSKSTSGGTAALGCLVKDYFPEPVTVSWNSGALTSGVHTFPAVLQSSGLYSLSSVVTVPSSSLGTQTYICNVNHKPSNTKVDKKVEPKSCDKTHTCPPCPAPEAAGGPSVFLFPPKPKDTLMISRTPEVTCVVVDVSHEDPEVKFNWYVDGVEVHNAKTKPREEQYASTYRVVSVLTVLHQDWLNGKEYKCKVSNKALPAPIEKTISKAKGQPREPQVYTLPPSRCELTKNQVSLSCAVKGFYPSDIAVEWESNGQPENNYKTTPPVLDSDGSFFLVSKLTVDKSRWQQGNVFSCSVMHEALHNHYTQKSLSLSPDYKDDDDK EPKSSDKTHTCPPCPAPELLGGPSVFLFPPKPKDTLMISRTPEVTCVVVDVSHEDPEVKFNWYVDGVEVHNAKTKPREEQYNSTYRVVSVLTVLHQDWLNGKEYKCKVSNKALPAPIEKTISKAKGQPREPQVCTLPPSRDELTKNQVSLWCLVKGFYPSDIAVEWESNGQPENNYKTTPPVLDSDGSFFLYSKLTVDKSRWQQGNVFSCSVMHEALHNRYTQKSLSLSP light: DIVMTQSPLSLPVTPGEPASISCRSSQSLVHSNRNTYLHWYQQKPGQAPRLLIYKVSNRFSGVPDRFSGSGSGTDFTLKISRVEAEDVGVYYCGQGTQVPYTFGQGTKLEIKRTVAAPSVFIFPPSDEQLKSGTASVVCLLNNFYPREAKVQWKVDNALQSGNSQESVTEQDSKDSTYSLSSTLTLSKADYEKHKVYACEVTHQGLSSPVTKSFNRGEC",1.32
